Assays:
[1] = test system: Bcl-xL and Bcl-2 in normal thyrocytes; assay: Immunoblot of Bcl-xL and Bcl-2 in normal thyrocytes cultured with cytokines; assay type: cell-based, human; details: after 48 hours of culture; IL-4 20 ng/ml, IL-10 40 ng/ml, IFN-γ 1000 IU/ml
Protocol: Thyroid cell purification and culture. Thyroid tissues from normal, PTC, FTC and UTC were digested for 2 hours with collagenase (1.5 mg/ml) (Gibco BRL, Grand Island, N.Y.) and hyaluronidase (20 μg/ml) (Sigma Chemical Co., St. Louis, Mo.) in DMEM. Thyrocytes were purified from the digested tissues by hematopoietic cell depletion with anti-CD45-coupled beads (Dynal, Wirral Merseyside, U.K.) and 12 hours of flask adherence, which allowed removal of other cells. After additional 12 hours of culture, thyroid cells were allowed to grow in monolayer for the immunocytochemistry or detached with trypsin+EDTA following exposure to cytokines or chemotherapeutic agents for functional and protein analyses. Thyrocytes were cultured in standard DMEM with 10% heat-inactivated FBS (Hyclone Laboratories, Logan, UK) in the presence or absence of human recombinant IL-4 (20 ng/ml), IL-10 (40 ng/ml) or IFN-γ (1000 IU/ml) (uroclone, Paignton, UK) and cisplatin (300 ng/ml), doxorubicin (5 μM) and taxol (5 μM) (Sigma) or TRAIL (Alexis, San Diego, USA). For the IL-4 and IL-10 neutralization, thyroid cancer cells were pretreated, for 48 hours, with anti-human IL-4 and IL-10 neutralizing antibodies (1 μg/ml) (R&D systems, MN, USA).
Protein isolation and Western Blotting. Cell pellets were resuspended in ice-cold NP-40 lysis buffer (50 mM Tris-HCl, pH 7.5, 150 mM NaCl, 1 mM EGTA, 1% NP-40) containing 1 mM PMSF, leupeptin (1 μg/ml), pepstatin (1 μg/ml) and aprotirni (1 μg/ml). Each lysate (30 μg) was fractioned on 12% SDS-polyacrylamide gels and blotted to nitrocellulose (Hybond, Amersham, Little Chalfont Buckinghamshire England, UK). Membrane was blocked for 1 h with nonfat dry milk in TBS containing 0.05% Tween 20 and successively incubated for 2 h with Abs specific to actin (Ab-1, mouse IgM, Calbiochem, Darmstadt, Germany), Bcl-2 (124, mouse IgG1, Upstate Biotechnology Inc.), Bcl-xL (H-5, mouse IgGl, Santa Cniz Biotechnology), IL-4 (3007.11, mouse IgG1, R&D Systems, Inc., Minneapolis, USA), IL-10 (23738.111, mouse IgG2b, R&D Systems), IFN-γ (25718.111, mouse IgG2a, R&D Systems). […]

[2] = test system: freshly isolated normal breast epithelial cells; assay: Bcl-XL expression and chemotherapy-induced apoptosis in normal breast epithelial cells exposed to IL-4; assay type: cell-based, human
Excerpt: To confirm that IL-4-induced upregulation of Bcl-XL is able to protect epithelial breast cells from apoptosis, freshly isolated normal breast epithelial cells were exposed to IL-4 and analyzed Bcl-XL expression and sensitivity to a panel of chemotherapeutic drugs commonly used to treat breast cancer. […] To confirm that in vivo exposure to IL-4 is responsible for high Bcl-XL expression and resistance to chemotherapy in breast cancer, Bcl-XL expression and sensitivity to apoptosis of primary breast carcinoma cells cultivated in the presence or absence of IL-4 was measured Freshly isolated breast cancer cells expressed high levels of Bcl-XL and were scarcely sensitive to chemotherapeutic drugs (FIGS. 14C and D). […] Thus, in vivo IL-4 production promotes the survival of breast cancer cells. […]
Cell pellets were washed twice with cold PBS and lysed on ice for 30 minutes with 1% NP40 lysis buffer (20 mM Tris-HCl pH 7.2, 200 mM NaCl, 1% NP40) in the presence of 1 mM phenylmethylsulphonyl fluoride (PMSF) and 2 μg/ml each of aprotinin, leupeptin and pepstatin. […] Lysate concentration was determined using the Bio-Rad protein assay (Bio-Rad Laboratories, Richmond, Calif.). […]

B1: IL-4: human recombinant IL-4 (protein, UniProt P05112 25-153, looked up)
Interleukin-4: HKCDITLQEIIKTLNSLTEQKTLCTELTVTDIFAASKNTTEKETFCRAATVLRQFYSHHEKDTRCLGATAQQFHRHKQLIRFLKRLDRNLWGLAGLNSCPVKEANQSTLENFLERLKTIMREKYSKCSS
In the case of B1, the “Bcl-xL and Bcl-2 expression in normal thyrocytes” value [1] is reported as “upregulated”, the “apoptosis of normal breast epithelial cells induced by cisplatin, doxorubicin and taxol” value ([2]; IL-4 pretreatment) is reported as “significantly protected” and the “Bcl-XL expression in normal breast epithelial cells” value ([2]; IL-4 treatment) is reported as “considerably increased the expression of Bcl-XL”.
